In paper PMC6713926, “Structural Basis for Properdin Oligomerization and Convertase Stimulation in the Human Complement System” (Frontiers in Immunology, 2019):

Target: T1, FPht, monomeric FP head-tail protein from co-expression of FPh and FPt (human)
T1 construct: properdin (FP), human, TB-TSR3 head fragment (FPh), expressed with the endogenous FP signal peptide; the head fragment of FPc is residues 28-255; properdin (FP), human, TSR4-6 tail fragment (FPt); the tail fragment of FPc is residues 256-469; also called FPht WT; WT FPht
T1 chain 1: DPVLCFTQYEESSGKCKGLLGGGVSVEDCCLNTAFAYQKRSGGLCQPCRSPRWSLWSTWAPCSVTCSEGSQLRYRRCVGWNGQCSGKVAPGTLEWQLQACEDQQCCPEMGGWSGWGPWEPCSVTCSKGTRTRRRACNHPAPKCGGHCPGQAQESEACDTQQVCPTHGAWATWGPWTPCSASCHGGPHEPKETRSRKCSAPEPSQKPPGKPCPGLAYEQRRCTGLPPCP
T1 chain 2: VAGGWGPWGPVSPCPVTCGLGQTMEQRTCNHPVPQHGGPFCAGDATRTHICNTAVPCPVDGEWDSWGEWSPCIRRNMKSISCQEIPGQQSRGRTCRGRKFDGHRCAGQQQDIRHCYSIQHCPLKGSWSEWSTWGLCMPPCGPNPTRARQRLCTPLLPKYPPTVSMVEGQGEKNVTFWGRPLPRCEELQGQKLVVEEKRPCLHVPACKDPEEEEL
Assay: BLI; hFPNb1 amine-coupled on AR2G sensors, FPht (20 μg/mL) loaded on it; C3b, FB variants or C3b + FB at 50 μg/mL each; 30°C; 20 mM MES pH 6.0, 100 mM NaCl, 0.05% Tween, 1 mg/mL BSA, 5 mM MgCl2; FB signal subtracted
Conditions: both partners purified

B1: hFPNb1, FP specific non-inhibitory nanobody (VHH)
VHH: QVQLVESGGGLVQAGGSLRLSCAASERTFTIYAMGWFRQAPGKEREFVAAISRSGENTDYADSVKGRFTISRDNNKNTISLQMNSLKPEDTAVYYCAAGRAILVHTTKKEYDHWGQGTQVTVSS
notes: llama nanobody selected by phage display against FPc
B1: binds.
